# Reference: patent US20040258656
# Columns and labels:
# [1] = biological target: T1, TGFβ2 (transforming growth factor beta 2) (Homo sapiens) (UniProt P61812); assay: filter; settings: 2'-F C and U
# T1 sequence: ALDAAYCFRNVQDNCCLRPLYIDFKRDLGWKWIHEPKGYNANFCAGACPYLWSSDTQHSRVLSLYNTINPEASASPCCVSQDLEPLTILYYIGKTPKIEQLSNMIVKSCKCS
# [2] = biological target: T2, TGFβ3 (transforming growth factor beta 3) (Homo sapiens) (UniProt P10600); assay: filter; settings: 2'-F C and U; round 0 pool
# T2 sequence: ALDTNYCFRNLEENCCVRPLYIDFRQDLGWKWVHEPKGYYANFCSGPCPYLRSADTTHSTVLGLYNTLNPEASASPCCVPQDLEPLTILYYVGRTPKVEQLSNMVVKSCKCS
Sequence,"Kd ([1]; biased round 0 pool, protein excess)","Kd ([1]; round 0 pool, printed as >10 [M)",Kd [2]
GGGAGGACGAUGCGGNNNNNNNNNNNNNNNNNNNNNNNNNNNNNNNNNNCAGACGACUCGCCCGA [34N7.21a-21 biased round 0 pool],0.87 µM,,
GGGAGGACGAUGCGGNNNNNNNNNNNNNNNNNNNNNNNNNNNNNNNNNNNNNNNNCAGACGACUCGCCCGA [round 0 40N7 pool],,> 10 µM,> 10 µM
